Laboratory results reported in publication PMC7992989.

Legend:
[1] = biological target: CP12 from Thalassiosira pseudonana, recombinant, after His tag removal with thrombin (Thalassiosira pseudonana); experiment: native MS; native ESI-MS, 5 µM CP12 without histidine tag, 200 mM ammonium acetate pH 8.0, source temperature 20 °C; dimer to monomers
[2] = biological target: recombinant histidine tagged CP12 from Thalassiosira pseudonana (Thalassiosira pseudonana); experiment: SEC-SAXS; 50 µL of His-tagged CP12 at 11 mg/mL on Agilent Bio-SEC-3 300 Å, 15 °C, 30 mM Tris, 50 mM NaCl, 2 mM EDTA, 1 mM TCEP, pH 7.5; mass from the forward scattering intensity

| stoichiometry N [1] | stoichiometry N [2] | Substance |
| --- | --- | --- |
| 2 |  | CP12 from Thalassiosira pseudonana, recombinant, after His tag removal with thrombin (natural protein) |
|  | 2 | recombinant histidine tagged CP12 from Thalassiosira pseudonana (natural protein) |
